Each block holds one binder with its values, some of them ahead of it.
What was measured:
[1] = target: T1, human C5b-6 complexes (human, UniProt P01031 752-1676; P01031 19-673; P13671 22-934); assay: ELISA, rFHR-5 coated at 50 to 0.4 pmol/well, C5b-6 detected with anti-C6 K1.115
T1 construct: Complex of C5b and C6
Method: (§1) Binding of C3b, C5b-6 and HSA to recombinant FHR-5 (panel A) or Factor H (panel B) was determined by ELISA.
(§2) Recombinant FHR-5 or Factor H (Sigma) were serially diluted 1:2 in 0.1 M carbonate buffer, pH 9.3. Duplicate wells in microtitre plates were incubated with dilutions of FHR-5 or Factor H from 50 pmol/well to 0.4 pmol/well. The plates were blocked and wells incubated with human C3b, C5b-6 or HSA at 10 μg/well. C3b was detected by incubation with polyclonal rabbit anti-C3 antibody (1:1000 dilution) followed by peroxidase-conjugated swine anti-rabbit antibody (1:2000 dilution). C5b-6 and HSA were detected using K1.115 (anti-C6) and anti-HSA monoclonal antibodies, respectively, (1:500 dilution) followed by peroxidase-conjugated rabbit anti-mouse antibody (1:2000 dilution). The ELISAs were developed with O-phenylenediamine dihydrochloride. The reaction was stopped with 4M H₂SO₄ and the optical density of the solution was measured at a wavelength of 492 nm using a Behring EL31 microplate reader.

[2] = target: human serum albumin (HSA) (human, UniProt P02768 25-609); assay: ELISA, rFHR-5 coated at 50 to 0.4 pmol/well, HSA detected with anti-HSA monoclonal antibody
Method: as §1, §2

[3] = target: human C3b (human, UniProt P01024 749-1663; P01024 23-667); assay: ELISA, rFHR-5 coated at 50 to 0.4 pmol/well, C3b at 10 µg/well, detected with polyclonal anti-C3
Method: as §1, §2

[4] = target: T1, human C5b-6 complexes; assay: ELISA, Factor H coated at 50 to 0.4 pmol/well, C5b-6 detected with anti-C6 K1.115
Method: as §1, §2

T1 sequence (P01031 752-1676 limits assumed, chain 1 of 3): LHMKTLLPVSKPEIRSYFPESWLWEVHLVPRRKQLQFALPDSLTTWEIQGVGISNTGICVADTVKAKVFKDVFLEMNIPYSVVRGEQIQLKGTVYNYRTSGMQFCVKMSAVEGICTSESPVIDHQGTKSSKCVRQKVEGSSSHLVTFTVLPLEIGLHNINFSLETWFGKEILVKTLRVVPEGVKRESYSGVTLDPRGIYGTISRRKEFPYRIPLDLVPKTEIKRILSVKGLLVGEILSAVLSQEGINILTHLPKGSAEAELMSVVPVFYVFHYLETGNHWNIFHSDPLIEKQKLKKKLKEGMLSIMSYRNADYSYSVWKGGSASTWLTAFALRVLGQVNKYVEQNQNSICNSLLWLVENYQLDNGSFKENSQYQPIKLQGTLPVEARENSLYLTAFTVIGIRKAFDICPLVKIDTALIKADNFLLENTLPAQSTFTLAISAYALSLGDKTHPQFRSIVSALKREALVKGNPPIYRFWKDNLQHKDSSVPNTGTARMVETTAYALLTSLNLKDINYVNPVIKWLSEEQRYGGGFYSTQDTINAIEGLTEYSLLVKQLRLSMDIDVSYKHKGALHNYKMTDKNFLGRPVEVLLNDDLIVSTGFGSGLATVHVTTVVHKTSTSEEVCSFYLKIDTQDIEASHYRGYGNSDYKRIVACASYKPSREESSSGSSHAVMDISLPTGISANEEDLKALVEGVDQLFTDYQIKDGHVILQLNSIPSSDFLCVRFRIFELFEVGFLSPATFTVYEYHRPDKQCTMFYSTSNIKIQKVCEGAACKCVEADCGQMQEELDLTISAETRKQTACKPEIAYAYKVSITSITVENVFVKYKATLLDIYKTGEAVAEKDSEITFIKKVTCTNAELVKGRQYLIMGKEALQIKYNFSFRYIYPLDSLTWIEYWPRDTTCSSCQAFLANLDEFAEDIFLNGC
T1 sequence (P01031 19-673 limits assumed, chain 2 of 3): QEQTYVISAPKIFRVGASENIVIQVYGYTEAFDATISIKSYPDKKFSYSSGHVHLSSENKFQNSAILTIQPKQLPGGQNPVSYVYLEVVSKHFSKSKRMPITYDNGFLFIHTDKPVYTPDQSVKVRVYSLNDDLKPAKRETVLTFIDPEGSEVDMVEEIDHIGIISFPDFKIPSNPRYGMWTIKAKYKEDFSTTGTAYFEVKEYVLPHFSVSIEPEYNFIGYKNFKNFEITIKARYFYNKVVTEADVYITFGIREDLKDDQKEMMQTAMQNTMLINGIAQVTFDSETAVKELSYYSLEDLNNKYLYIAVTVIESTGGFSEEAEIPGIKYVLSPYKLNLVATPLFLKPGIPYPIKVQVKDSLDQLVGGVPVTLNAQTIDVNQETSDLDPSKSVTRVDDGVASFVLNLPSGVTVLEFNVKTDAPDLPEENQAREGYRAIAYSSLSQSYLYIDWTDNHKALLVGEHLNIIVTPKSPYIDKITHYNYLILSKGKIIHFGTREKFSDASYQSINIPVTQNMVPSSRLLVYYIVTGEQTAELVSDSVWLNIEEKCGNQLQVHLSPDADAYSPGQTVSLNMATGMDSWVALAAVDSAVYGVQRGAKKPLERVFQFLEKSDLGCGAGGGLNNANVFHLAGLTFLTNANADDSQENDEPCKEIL
T1 sequence (P13671 22-934 limits assumed, chain 3 of 3): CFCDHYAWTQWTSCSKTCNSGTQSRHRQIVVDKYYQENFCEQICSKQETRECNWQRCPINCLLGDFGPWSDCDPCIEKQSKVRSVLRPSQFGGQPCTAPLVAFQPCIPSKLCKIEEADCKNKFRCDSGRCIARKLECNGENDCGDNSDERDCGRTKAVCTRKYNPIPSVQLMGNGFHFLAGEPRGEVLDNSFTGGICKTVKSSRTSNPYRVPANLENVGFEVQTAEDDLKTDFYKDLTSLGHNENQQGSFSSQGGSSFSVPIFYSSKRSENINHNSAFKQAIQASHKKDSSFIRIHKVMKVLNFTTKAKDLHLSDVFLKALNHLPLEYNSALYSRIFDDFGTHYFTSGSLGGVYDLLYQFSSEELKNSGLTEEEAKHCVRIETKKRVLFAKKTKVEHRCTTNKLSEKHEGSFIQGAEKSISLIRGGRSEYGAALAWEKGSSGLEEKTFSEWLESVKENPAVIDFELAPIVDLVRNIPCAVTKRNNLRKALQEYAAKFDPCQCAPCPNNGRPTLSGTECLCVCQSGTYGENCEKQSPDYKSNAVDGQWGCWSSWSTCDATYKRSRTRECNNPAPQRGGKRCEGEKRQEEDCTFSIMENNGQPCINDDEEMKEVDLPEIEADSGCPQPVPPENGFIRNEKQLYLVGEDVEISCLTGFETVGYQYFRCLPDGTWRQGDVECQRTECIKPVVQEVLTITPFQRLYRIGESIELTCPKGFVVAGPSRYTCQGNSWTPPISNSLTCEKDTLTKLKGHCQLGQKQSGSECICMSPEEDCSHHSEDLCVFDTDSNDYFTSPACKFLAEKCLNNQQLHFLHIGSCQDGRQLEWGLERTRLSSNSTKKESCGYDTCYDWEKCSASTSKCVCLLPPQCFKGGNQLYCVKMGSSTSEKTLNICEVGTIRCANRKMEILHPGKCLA
Chain of human C3b (P01024 749-1663 limits assumed, chain 1 of 2): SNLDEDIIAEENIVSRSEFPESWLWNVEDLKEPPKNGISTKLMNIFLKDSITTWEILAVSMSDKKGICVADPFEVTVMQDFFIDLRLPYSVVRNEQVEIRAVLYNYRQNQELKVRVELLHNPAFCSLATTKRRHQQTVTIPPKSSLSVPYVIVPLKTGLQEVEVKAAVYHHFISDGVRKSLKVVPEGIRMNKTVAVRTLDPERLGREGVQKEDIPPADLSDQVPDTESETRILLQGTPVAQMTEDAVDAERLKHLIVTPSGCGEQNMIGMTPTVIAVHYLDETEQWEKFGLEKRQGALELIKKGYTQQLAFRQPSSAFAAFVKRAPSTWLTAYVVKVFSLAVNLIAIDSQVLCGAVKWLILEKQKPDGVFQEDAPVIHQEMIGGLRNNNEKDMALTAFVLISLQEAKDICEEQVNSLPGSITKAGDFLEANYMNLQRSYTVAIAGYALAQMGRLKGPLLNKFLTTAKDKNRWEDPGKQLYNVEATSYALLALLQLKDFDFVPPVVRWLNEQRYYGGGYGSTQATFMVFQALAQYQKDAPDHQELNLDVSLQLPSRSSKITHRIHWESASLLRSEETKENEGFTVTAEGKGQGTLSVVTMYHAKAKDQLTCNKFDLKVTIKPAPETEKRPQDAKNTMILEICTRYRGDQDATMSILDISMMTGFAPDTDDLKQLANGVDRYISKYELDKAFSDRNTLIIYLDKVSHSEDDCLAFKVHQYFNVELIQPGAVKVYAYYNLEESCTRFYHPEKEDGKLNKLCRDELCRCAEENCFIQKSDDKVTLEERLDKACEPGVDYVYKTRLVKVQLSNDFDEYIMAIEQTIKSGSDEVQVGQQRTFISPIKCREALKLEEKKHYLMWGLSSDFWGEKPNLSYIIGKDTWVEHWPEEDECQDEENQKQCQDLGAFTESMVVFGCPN
Chain of human C3b (P01024 23-667 limits assumed, chain 2 of 2): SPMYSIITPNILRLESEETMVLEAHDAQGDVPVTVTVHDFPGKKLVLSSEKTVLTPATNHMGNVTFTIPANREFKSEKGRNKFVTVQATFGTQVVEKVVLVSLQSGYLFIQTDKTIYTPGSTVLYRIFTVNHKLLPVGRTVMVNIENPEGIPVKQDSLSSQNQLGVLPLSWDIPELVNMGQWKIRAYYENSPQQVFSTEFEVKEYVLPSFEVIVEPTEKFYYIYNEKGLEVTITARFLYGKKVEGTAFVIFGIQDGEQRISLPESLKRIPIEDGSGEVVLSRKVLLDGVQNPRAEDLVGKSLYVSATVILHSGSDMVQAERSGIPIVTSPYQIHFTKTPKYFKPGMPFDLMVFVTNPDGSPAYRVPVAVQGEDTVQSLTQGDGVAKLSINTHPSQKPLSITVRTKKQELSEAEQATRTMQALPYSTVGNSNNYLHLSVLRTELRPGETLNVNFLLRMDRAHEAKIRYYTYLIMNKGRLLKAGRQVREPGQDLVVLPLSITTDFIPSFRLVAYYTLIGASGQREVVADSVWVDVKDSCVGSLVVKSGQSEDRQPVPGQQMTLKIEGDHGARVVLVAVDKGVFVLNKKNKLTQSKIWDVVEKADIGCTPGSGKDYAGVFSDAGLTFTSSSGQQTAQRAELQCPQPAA
Chain of human serum albumin (HSA) (P02768 25-609 limits assumed): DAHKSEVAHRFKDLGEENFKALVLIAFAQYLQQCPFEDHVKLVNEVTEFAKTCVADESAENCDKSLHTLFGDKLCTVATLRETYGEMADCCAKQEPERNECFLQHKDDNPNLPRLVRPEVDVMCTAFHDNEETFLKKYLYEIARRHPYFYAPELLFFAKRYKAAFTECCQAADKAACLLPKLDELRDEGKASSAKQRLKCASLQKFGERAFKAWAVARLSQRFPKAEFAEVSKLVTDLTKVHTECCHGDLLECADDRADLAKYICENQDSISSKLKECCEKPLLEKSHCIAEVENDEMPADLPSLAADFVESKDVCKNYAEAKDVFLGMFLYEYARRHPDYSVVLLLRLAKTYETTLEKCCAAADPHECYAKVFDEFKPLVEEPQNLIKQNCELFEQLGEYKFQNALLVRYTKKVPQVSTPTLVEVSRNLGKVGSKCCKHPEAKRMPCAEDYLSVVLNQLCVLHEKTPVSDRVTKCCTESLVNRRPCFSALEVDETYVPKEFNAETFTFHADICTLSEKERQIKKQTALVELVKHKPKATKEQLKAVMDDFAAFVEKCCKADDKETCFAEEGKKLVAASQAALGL

binding result [1]: no binding (tested: 10 µg/well) | binding result [2]: no binding (tested: 10 µg/well) | binding result [3]: binds
B1: recombinant FHR-5 (rFHR-5), polyhistidine-tagged, expressed in insect cells (other)
chain: EGTLCDFPKIHHGFLYDEEDYNPFSQVPTGEVFYYSCEYNFVSPSKSFWTRITCTEEGWSPTPKCLRMCSFPFVKNGHSESSGLIHLEGDTVQIICNTGYSLQNNEKNISCVERGWSTPPICSFTKGECHVPILEANVDAQPKKESYKVGDVLKFSCRKNLIRVGSDSVQCYQFGWSPNFPTCKGQVRSCGPPPQLSNGEVKEIRKEEYGHNEVVEYDCNPNFIINGPKKIQCVDGEWTTLPTCVEQVKTCGYIPELEYGYVQPSVPPYQHGVSVEVNCRNEYAMIGNNMITCINGIWTELPMCVATHQLKRCKIAGVNIKTLLKLSGKEFNHNSRIRYRCSDIFRYRHSVCINGKWNPEVDCTEKREQFCPPPPQIPNAQNMTTTVNYQDGEKVAVLCKENYLLPEAKEIVCKDGRWQSLPRCVESTAYCGPPPSINNGDTTSFPLSVYPPGSTVTYRCQSFYKLQGSVTVTCRNKQWSEPPRCLDPCVVSEENMNKNNIQLKWRNDGKLYAKTGDAVEFQCKFPHKAMISSPPFRAICQEGKFEYPICE
notes: Insert amplified from immediately downstream of the signal peptide-encoding region to the end of the ORF (mature FHR-5, 551 amino acids); also called His-tagged recombinant protein; not shown: 10-histidine tag coded by vector pFASTBAC1-His10+ (after a gp67 signal peptide)

binding result [4]: no binding (tested: 10 µg/well)
B2: Factor H (Sigma) (other, UniProt P08603 19-1231, looked up)
chain: EDCNELPPRRNTEILTGSWSDQTYPEGTQAIYKCRPGYRSLGNVIMVCRKGEWVALNPLRKCQKRPCGHPGDTPFGTFTLTGGNVFEYGVKAVYTCNEGYQLLGEINYRECDTDGWTNDIPICEVVKCLPVTAPENGKIVSSAMEPDREYHFGQAVRFVCNSGYKIEGDEEMHCSDDGFWSKEKPKCVEISCKSPDVINGSPISQKIIYKENERFQYKCNMGYEYSERGDAVCTESGWRPLPSCEEKSCDNPYIPNGDYSPLRIKHRTGDEITYQCRNGFYPATRGNTAKCTSTGWIPAPRCTLKPCDYPDIKHGGLYHENMRRPYFPVAVGKYYSYYCDEHFETPSGSYWDHIHCTQDGWSPAVPCLRKCYFPYLENGYNQNYGRKFVQGKSIDVACHPGYALPKAQTTVTCMENGWSPTPRCIRVKTCSKSSIDIENGFISESQYTYALKEKAKYQCKLGYVTADGETSGSITCGKDGWSAQPTCIKSCDIPVFMNARTKNDFTWFKLNDTLDYECHDGYESNTGSTTGSIVCGYNGWSDLPICYERECELPKIDVHLVPDRKKDQYKVGEVLKFSCKPGFTIVGPNSVQCYHFGLSPDLPICKEQVQSCGPPPELLNGNVKEKTKEEYGHSEVVEYYCNPRFLMKGPNKIQCVDGEWTTLPVCIVEESTCGDIPELEHGWAQLSSPPYYYGDSVEFNCSESFTMIGHRSITCIHGVWTQLPQCVAIDKLKKCKSSNLIILEEHLKNKKEFDHNSNIRYRCRGKEGWIHTVCINGRWDPEVNCSMAQIQLCPPPPQIPNSHNMTTTLNYRDGEKVSVLCQENYLIQEGEEITCKDGRWQSIPLCVEKIPCSQPPQIEHGTINSSRSSQESYAHGTKLSYTCEGGFRISEENETTCYMGKWSSPPQCEGLPCKSPPEISHGVVAHMSDSYQYGEEVTYKCFEGFGIDGPAIAKCLGEKWSHPPSCIKTDCLSLPSFENAIPMGEKKDVYKAGEQVTYTCATYYKMDGASNVTCINSRWTGRPTCRDTSCVNPPTVQNAYIVSRQMSKYPSGERVRYQCRSPYEMFGDEEVMCLNGNWTEPPQCKDSTGKCGPPPPIDNGDITSFPLSVYAPASSVEYQCQNLYQLEGNKRITCRNGQWSEPPKCLHPCVISREIMENYNIALRWTAKQKLYSRTGESVEFVCKRGYRLSSRSHTLRTTCWDGKLEYPTCAKR
notes: Bought protein; also called FH
